Measurements from patent publication US20100015126A1 (published 2010).
One block for each binder: values may come before it.

Tests used:
[1] = biological target: recombinant human HSP90beta (human, UniProt P08238 1-724); test: direct ELISA, coated ligand, HSP90 concentration series
[2] = biological target: T1, synthetic human amyloid-β(1-42) peptide (Aβ42t=0) (human); test: direct ELISA, coated ligand, anti-His-tag detection
T1 construct: also called Aβ1-42

[3] = biological target: T2, fibrin (immobilized, formed from fibrinogen with factor IIa) (UniProt P02671 36-629; P02675 45-491; P02679 27-437); test: direct ELISA, fibrin formed in wells, anti-His-tag detection
T2 sequence (looked up) 1: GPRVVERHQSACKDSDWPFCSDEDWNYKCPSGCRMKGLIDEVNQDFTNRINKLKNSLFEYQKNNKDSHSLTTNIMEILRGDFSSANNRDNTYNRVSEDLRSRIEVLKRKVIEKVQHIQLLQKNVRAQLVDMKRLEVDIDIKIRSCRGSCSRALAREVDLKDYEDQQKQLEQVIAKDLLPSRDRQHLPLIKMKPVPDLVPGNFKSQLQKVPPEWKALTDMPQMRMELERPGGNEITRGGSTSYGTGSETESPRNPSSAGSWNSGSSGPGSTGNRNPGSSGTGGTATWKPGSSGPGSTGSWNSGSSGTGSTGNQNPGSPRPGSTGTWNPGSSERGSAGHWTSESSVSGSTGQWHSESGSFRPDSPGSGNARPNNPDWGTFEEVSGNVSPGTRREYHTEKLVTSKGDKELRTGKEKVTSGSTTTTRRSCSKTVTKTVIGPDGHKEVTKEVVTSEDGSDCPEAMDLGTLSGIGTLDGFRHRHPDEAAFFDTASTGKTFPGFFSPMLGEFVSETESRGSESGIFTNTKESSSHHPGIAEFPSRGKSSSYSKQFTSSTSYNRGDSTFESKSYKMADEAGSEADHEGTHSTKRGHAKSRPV
T2 sequence (looked up) 2: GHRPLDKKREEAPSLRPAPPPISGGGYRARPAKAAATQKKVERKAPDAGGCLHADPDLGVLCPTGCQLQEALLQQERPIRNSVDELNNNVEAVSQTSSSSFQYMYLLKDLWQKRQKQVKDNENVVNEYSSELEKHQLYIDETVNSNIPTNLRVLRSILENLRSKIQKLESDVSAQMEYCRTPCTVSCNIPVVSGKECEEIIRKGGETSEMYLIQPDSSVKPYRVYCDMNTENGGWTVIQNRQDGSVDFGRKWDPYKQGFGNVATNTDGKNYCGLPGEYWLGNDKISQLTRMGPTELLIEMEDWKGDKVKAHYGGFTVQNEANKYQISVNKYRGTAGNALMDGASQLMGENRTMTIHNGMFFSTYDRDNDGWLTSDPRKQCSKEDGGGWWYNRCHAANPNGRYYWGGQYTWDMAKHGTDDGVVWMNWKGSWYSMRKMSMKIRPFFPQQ
T2 sequence (looked up) 3: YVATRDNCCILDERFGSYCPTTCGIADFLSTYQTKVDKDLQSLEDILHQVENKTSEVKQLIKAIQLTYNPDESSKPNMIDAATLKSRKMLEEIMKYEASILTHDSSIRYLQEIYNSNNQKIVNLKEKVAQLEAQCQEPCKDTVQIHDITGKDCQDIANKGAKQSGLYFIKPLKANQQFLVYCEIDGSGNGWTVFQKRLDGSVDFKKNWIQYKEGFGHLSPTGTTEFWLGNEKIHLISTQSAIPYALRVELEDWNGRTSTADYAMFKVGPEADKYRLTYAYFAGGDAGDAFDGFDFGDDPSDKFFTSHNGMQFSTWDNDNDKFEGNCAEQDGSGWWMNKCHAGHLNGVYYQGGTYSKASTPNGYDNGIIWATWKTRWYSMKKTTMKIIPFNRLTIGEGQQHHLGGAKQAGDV

[4] = biological target: T3, oxidized human plasma low density lipoprotein (oxLDL) with misfolded apolipoprotein B100 (human, UniProt P04114 28-4563); test: direct ELISA, coated ligand, HSP60 concentration series
T3 construct: also called oxidized LDL
T3 sequence (P04114 28-4563 limits assumed): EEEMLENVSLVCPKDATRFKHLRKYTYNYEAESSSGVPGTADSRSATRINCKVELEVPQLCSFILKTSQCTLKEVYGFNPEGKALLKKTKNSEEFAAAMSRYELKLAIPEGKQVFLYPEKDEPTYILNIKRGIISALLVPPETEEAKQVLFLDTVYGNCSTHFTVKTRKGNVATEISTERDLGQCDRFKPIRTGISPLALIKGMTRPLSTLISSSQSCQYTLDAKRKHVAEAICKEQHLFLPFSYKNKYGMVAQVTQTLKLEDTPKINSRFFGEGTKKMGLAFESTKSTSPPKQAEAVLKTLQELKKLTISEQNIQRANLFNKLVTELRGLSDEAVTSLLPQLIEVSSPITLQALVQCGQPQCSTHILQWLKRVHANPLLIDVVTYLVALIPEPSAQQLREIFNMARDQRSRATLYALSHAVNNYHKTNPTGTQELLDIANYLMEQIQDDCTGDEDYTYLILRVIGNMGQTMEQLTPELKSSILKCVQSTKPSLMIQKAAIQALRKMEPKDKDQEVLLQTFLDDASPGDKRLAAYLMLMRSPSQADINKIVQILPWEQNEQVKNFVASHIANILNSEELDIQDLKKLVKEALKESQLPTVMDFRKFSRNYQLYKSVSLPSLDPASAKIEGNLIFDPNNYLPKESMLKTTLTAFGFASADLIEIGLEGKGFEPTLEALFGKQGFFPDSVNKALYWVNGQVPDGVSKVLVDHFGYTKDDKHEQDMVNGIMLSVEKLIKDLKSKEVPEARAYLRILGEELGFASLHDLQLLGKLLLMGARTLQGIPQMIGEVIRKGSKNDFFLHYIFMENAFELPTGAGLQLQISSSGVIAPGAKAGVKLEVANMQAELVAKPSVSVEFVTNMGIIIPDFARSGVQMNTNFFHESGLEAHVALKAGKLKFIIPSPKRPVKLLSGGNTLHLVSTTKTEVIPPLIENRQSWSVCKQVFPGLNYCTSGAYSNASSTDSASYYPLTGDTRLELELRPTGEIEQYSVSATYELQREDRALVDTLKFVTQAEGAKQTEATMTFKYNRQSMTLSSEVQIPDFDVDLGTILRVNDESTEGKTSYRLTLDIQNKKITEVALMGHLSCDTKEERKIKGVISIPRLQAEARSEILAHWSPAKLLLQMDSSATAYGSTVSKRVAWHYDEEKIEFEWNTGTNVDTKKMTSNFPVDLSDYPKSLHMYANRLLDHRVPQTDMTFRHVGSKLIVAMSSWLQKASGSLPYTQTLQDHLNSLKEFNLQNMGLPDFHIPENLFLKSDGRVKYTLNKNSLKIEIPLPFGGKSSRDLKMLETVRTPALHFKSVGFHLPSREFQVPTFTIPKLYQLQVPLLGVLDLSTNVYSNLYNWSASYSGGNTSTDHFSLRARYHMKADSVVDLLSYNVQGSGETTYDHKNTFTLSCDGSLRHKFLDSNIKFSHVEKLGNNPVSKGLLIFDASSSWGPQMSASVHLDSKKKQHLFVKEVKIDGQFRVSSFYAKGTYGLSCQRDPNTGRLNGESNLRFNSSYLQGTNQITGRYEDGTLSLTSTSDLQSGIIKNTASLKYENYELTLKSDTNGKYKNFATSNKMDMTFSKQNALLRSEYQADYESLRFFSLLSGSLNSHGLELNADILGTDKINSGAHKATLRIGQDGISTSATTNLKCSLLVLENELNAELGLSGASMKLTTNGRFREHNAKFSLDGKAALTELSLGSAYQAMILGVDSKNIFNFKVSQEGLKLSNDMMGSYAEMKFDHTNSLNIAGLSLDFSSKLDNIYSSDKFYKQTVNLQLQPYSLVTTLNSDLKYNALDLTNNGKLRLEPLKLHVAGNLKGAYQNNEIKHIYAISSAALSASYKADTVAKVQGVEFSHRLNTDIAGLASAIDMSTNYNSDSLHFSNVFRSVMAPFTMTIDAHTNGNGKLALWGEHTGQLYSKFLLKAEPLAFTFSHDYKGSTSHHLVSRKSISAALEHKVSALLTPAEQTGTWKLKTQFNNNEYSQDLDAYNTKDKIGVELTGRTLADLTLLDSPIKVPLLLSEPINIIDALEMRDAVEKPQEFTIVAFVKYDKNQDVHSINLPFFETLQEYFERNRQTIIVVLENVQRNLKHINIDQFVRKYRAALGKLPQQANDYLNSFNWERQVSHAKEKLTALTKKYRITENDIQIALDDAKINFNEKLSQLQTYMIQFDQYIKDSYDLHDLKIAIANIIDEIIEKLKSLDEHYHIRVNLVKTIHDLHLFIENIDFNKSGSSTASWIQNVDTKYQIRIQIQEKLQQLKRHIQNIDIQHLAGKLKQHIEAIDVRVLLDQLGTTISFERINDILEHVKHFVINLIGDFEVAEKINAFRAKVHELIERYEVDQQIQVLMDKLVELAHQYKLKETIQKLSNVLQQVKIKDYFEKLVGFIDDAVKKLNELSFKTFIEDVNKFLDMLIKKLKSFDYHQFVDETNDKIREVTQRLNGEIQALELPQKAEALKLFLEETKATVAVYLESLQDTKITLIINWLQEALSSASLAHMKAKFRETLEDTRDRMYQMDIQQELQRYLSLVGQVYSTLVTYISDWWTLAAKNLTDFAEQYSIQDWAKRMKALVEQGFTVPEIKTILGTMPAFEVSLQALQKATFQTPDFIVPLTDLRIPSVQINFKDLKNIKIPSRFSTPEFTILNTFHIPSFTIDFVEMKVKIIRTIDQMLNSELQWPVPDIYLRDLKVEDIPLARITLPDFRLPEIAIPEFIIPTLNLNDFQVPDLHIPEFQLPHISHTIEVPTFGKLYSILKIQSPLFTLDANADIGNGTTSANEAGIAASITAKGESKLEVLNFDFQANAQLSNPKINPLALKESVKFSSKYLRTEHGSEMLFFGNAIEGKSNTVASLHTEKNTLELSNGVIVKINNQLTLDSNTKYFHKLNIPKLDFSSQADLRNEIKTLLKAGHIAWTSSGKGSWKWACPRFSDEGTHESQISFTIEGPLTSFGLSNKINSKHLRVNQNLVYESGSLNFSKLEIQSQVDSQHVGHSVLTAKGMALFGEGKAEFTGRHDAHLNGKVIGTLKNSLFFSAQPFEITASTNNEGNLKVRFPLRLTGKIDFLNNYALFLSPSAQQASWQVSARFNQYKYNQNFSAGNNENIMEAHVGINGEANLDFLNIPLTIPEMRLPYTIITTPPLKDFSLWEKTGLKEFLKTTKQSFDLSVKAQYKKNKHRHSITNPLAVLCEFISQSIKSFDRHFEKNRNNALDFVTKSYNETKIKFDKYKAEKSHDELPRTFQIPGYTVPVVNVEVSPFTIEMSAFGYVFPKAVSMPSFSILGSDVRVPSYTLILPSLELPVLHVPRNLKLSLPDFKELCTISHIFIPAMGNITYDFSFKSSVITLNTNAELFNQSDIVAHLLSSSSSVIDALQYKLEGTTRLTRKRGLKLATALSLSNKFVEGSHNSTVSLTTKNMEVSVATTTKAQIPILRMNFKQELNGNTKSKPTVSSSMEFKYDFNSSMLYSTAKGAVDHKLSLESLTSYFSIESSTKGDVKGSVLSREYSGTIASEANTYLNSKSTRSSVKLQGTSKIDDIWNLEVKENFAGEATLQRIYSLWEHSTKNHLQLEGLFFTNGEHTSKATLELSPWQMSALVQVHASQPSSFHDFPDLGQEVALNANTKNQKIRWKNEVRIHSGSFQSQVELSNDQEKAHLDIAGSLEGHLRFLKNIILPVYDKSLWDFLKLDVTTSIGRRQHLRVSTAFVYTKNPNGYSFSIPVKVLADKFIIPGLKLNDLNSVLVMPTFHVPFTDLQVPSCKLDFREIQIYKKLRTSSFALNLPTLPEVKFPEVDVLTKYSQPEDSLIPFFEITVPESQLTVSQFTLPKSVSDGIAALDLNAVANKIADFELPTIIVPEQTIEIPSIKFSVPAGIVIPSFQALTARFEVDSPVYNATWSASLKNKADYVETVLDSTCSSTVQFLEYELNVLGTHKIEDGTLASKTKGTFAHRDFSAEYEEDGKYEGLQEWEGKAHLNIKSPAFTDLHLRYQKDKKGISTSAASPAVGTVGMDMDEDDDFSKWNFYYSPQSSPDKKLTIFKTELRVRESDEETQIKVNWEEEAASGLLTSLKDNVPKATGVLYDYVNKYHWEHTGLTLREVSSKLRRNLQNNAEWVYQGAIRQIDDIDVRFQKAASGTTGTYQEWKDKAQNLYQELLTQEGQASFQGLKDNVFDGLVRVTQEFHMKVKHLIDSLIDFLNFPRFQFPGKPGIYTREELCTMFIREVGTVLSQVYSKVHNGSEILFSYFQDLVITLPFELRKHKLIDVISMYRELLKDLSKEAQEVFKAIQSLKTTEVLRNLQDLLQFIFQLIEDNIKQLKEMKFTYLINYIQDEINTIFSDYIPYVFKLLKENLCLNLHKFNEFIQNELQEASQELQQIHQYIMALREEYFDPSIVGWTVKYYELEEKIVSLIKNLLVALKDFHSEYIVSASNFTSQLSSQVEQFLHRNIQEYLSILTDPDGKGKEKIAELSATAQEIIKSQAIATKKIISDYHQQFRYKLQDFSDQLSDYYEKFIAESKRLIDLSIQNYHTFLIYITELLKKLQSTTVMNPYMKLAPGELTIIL

T1 sequence (peptide, as listed by the source limits assumed): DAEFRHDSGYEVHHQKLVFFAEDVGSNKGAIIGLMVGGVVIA

binding result [1]: no binding
B1: heat-denatured chicken ovalbumin (dOVA standard) (other, UniProt P01012 2-386, looked up)
chain: GSIGAASMEFCFDVFKELKVHHANENIFYCPIAIMSALAMVYLGAKDSTRTQINKVVRFDKLPGFGDSIEAQCGTSVNVHSSLRDILNQITKPNDVYSFSLASRLYAEERYPILPEYLQCVKELYRGGLEPINFQTAADQARELINSWVESQTNGIIRNVLQPSSVDSQTAMVLVNAIVFKGLWEKAFKDEDTQAMPFRVTEQESKPVQMMYQIGLFRVASMASEKMKILELPFASGTMSMLVLLPDEVSGLEQLESIINFEKLTEWTSSNVMEERKIKVYLPRMKMEEKYNLTSVLMAMGITDVFSSSANLSGISSAESLKISQAVHAAHAEINEAGREVVGSAEAGVDAASVSEEFRADHPFLFCIKHIATNAVLFFGRCVSP
notes: also called dOVA std; misfolded hen ovalbumin

binding result [2]: binds | binding result [3]: binds | binding result [4]: no binding
B2: recombinant human HSP60 with N-terminal His-tag (other, UniProt P10809 27-573, looked up, not shown: small tags and cut ends)
chain: AKDVKFGADARALMLQGVDLLADAVAVTMGPKGRTVIIEQSWGSPKVTKDGVTVAKSIDLKDKYKNIGAKLVQDVANNTNEEAGDGTTTATVLARSIAKEGFEKISKGANPVEIRRGVMLAVDAVIAELKKQSKPVTTPEEIAQVATISANGDKEIGNIISDAMKKVGRKGVITVKDGKTLNDELEIIEGMKFDRGYISPYFINTSKGQKCEFQDAYVLLSEKKISSIQSIVPALEIANAHRKPLVIIAEDVDGEALSTLVLNRLKVGLQVVAVKAPGFGDNRKNQLKDMAIATGGAVFGEEGLTLNLEDVQPHDLGKVGEVIVTKDDAMLLKGKGDKAQIEKRIQEIIEQLDVTTSEYEKEKLNERLAKLSDGVAVLKVGGTSDVEVNEKKDRVTDALNATRAAVEEGIVLGGGCALLRCIPALDSLTPANEDQKIGIEIIKRTLKIPAMTIAKNAGVEGSLIVEKIMQSSSEVGYDAMAGDFVNMVEKGIIDPTKVVRTALLDAAGVASLLTTAEVVVTEIPKEEKDPGMGAMGGMGGGMGGGMF
notes: mature; also called His-HSP60
